Where a chain is given by its changes, count along the chain named.
B1: BD-604 (antibody, V domains shown)
VH: EVQLVESGGGLIQPGGSLRLSCAASGIIVSSNYMTWVRQAPGKGLEWVSVIYSGGSTFYADSVKGRFTISRDNSKNTLYLQMSSLRAEDTAVYYCARDLGPYGMDVWGQGTTVTVSS
VL: DIQLTQSPSFLSASVGDRVTITCRASQGISSDLAWYQQKPGKAPNLLIYAASTLQSGVPSRFSGSGSGTEFTLTISSLQPEDFATYYCQQLNSDLYTFGQGTKLEIK
B2: CC12.1 (antibody, V domains shown)
VH: B1 VH with I27L, I28T, T35S, S83N, G100D, P101V, M104L
VL: DIVMTQSPSFLSASVGDRVTITCRASQGISSYLAWYQQKPGKAPKLLIYAASTLQSGVPSRFSGSGSGTEFTLTISSLQPEDFATYYCQQLNSYPPKFTFGPGTKVEIK
B3: C002 (antibody, V domains shown)
VH: EVQLVESGGGVVQPGRSLRLSCAASGFTFSIYGMHWVRQAPGKGLEWVAVISYDGSNKYYADSVKGRFTISRDNSKNTLYLQMNSLRAEDTAVYYCAKEGRPSDIVVVVAFDYWGQGTLVTVSS
VL: not shown
B4: BD-629 (antibody, V domains shown)
VH: EVQLVESGGGLIQPGGSLRLSCAASEFIVSRNYMSWVRQAPGKGLEWVSVIYSGGSTYYADSVKGRFTISRDNSKNTLNLQMNSLRAEDTAVYYCARDYGDYYFDYWGQGTLVTVSS
VL: EIVLTQSPGTLSLSPGERATLSCRASQGVSSFLAWYQQKPGQAPRLLIHGASSRATGIPDRFSGSGSGTDFTLTITRLEPEDFAVYYCQQYGSSPRTFGQGTKVEIK
B5: CC12.3 (antibody, V domains shown)
VH: B4 VH with E1Q, E26G, I28T, R31S, Y58F, N76S, N79Y, A87V, Y99F, Y102F
VL: not shown
B6: COVA2-34 (antibody, V domains shown)
VH: QVQLVESGGGVVQPGRSLRLSCAASGFTFSSYAMHWVRQAPGKGLEWVAVISYDGSNKYYADSVKGRFTISRDNSKNTLYLQMNSLRAEDTAVYYCARSASGSYYGAFDYWGQGTLVTVSS
VL: QTVVTQPASVSGSPGQSITISCTGTSSDVGGYNYVSWYQQHPGKAPKLMIYDVSNRPSGVSNRFSGSKSGNTASLTISGLQAEDEADYYCSSYTSSSTLGLYVFGTGTKVTVL
B7: C105 (antibody, V domains shown)
VH: QVQLVESGGGLIQPGGSLRLSCAASGFTVSSNYMSWVRQAPGKGLEWVSVIYSGGSTYYADSVKGRFTISRDNSKNTLYLQMNSLRAEDTAVYYCARGEGWELPYDYWGQGTLVTVSS
VL: QSALTQPPSGSGSPGQSVTISCTGTSSDVGGYKYVSWYQQHPGKAPKLMIYEVSKRPSGVPDRFSGSKSGNTASLTVSGLQAEDEADYYCSSYEGSNNFVVFGGGTKLTVL
B8: COVA1-18 (antibody, V domains shown)
VH: B7 VH with Q1E, I12V, G98V, G100W, W101A, E102A, L103A, P104G, Y105T, D106F
VL: QSALTQEPSLTVSPGGTVTLTCGSSTGAVTSGHYPYWFQQKPGQAPRTLIYDTSNKRSWTPARFSGSLLGGKAALTLSGAQPEDEAEYYCLLSYSGVWVFGGGTKLTVL
B9: C144 (antibody, V domains shown)
VH: EVQLVESGGGLIQPGGSLRLSCAASGFTVSNNYMSWVRQAPGKGLEWVSVIYSGGSTYYADSVKGRFTISRDKSKNTLYLQMNRLRAEDTAVYYCAREGEVEGYNDFWSGYSRDRYYFDYWGQGTLVTVSS
VL: QSALTQPASVSGSPGQSITISCTGTSSDVGGYNYVSWYQQHPGKAPKLMIYDVSNRPSGVSNRFSGSKSGNTASLTISGLQAEDEADYYCSSYTSSSTRVFGTGTKVTVL
B10: COVA2-10 (antibody, V domains shown)
VH: EVQLLESGGGLVQPGGSLKLSCAASGFTFSSYAMSWVRQAPGKGLEWVSAISGSGSNTYYADSVKGRFTISRDNSKNTLYLQMNSLRAEDTAVYYCAKGLRGQQLVIPTEYFQHWGQGTLVTVSS
VL: not shown
B11: BD-236 (antibody, V domains shown)
VH: EVQLVESGGGLIQPGGSLRLSCAASGITVSSNYMSWVRQAPGKGLEWVSVIYSGGSTDYADSVKGRFTISRDKSKNTLYLQMNSLRAEDTAVYYCARDLGEAGGMDVWGQGTTVTVSS
VL: AIQLTQSPSSLSASVGDRVTITCRASQGISSYLAWYQQKPGKAPKLLIYAASTLQSGVPSRFSGSGSGTDFTLTISSLQPEDFATYYCQQLNSYPPAFGGGTKVEIK
B12: BD-368-2 (antibody, V domains shown)
VH: EVQLLESGGGVVQPGGSLRLSCAASGFAFTTYAMNWVRQAPGRGLEWVSAISDGGGSAYYADSVKGRFTISRDNSKNTLYLQMNSLRAEDTAVYYCAKTRGRGLYDYVWGSKDYWGQGTLVTVSS
VL: B11 VL
B13: C119 (antibody, V domains shown)
VH: QVQLVQSGAEVKKPGASVKVSCKASGYTFTSYYMHWVRQAPGQGLEWMGIINPSGGSTSYAQKLQGRVTMTRDTSTSTVYMELSSLRSEDTAVYYCARANHETTMDTYYYYYYMDVWGKGTTVTVSS
VL: QSALTQPASVSGSPGQSITISCTGTSSDVGGYKYVSWYQRHPGKAPKLMIYDVSNRPSGVSNRFSGSKSGNTASLTISGLQAEDEADYYCSSYTSSSTSVVFGGGTQLTVL
B14: COVA1-07 (antibody, V domains shown)
VH: QVQLVESGAEVKKPGSSVKVSCKASGGTLSSYAITWVRQAPGQGLEWVGGIIPIFGTANYAQKFQGRVTITADESTSTAYMELSSLRSEDTAVYYCARVGAYDSSGYSNDYWGQGTLVTVSS
VL: DIQLTQSPATLSLSPGERATLSCRASQSVSSYLAWYQQKPGQAPRLLIYDASNRATGIPARFSGSGSGTDFTLTISSLEPEDFAVYYCQQRSNWPPRVTFGGGTKVEIK
B15: COVA2-18 (antibody, V domains shown)
VH: EVQLVQSGAEVKKPGSSVKVSCKASGGTFSSYAISWVRQAPGQGLEWMGGIIPIFGTTNYAQKFQGRVTITTDESTSTAYMELSSLRSEDTAVYYCARVYSYDSSGYYLEYWGQGTRVTVSS
VL: B14 VL with D1E, Q3V, R97S, V98I, G102Q, K105R, V106L
B16: COVA2-14 (antibody, V domains shown)
VH: B15 VH with E1Q, S35I, T58A, Y100R, S101Y, L109E, E110D, R117L
VL: B14 VL with D1E, Q3V, K39E, R97M, V98Y, G102Q
B17: COVA3-08 (antibody, V domains shown)
VH: EVQLVESGPGLVKPSETLSLTCTVSGGSISSYYWSWIRQPPGKGLEWIGYIYYSGSTNYNPSLKSRVTISVDTSKNQFSLRLSSVTAADTAVYYCARGPAATYYYYMDVWGKGTMVTVSS
VL: not shown
B18: COVA2-28 (antibody, V domains shown)
VH: EVQLVESGGGVVQPGRSLRLSCAASGFTFSSYGMHWVRQAPGKGLEWVAVIWYDGSNKYYADSVKGRFTISRDNSKNTLYLQMDSLRAEDTAMYYCAKDKAPPCSSGWYYFDYWGQGTLVTVSS
VL: not shown
B19: C110 (antibody, V domains shown)
VH: QVQLQQSGAEVKKPGESLKISCKGSGYSFTSYWIGWVRQMPGKGLEWMGIIYPGDSDTRYSPSFQGQVTISADKSISTAYMQWSSLKASDTAMYYCARSFRDDPRIAVAGPADAFDIWGQGTMVTVSS
VL: DIQMTQSPSTLSASVGDRVTITCRASQSISYWLAWYQQKPGKAPKLLIYQASSLESGVPSRFSGSESGTEFTLTISSLQPDDFATYYCQQYNSYPYTFGQGTKLEIK
B20: COVA2-41 (antibody, V domains shown)
VH: EVQLVESGGGLVKPGGSLRLSCSASGFTFSNYNMDWVRQAPGKGLEWVSSISSSSSYIYLADSVKGRFTISRDNAKNSLYLQMNSLRAEDTAVYYCARVQKDIVVVPVALADYYYYGMDVWGQGTTVTVSS
VL: DIVMTQSPATLSVSPGERATLSCRASQSVSSNLAWYQQKPGQAPRLLIYGASTRATGIPARFSGSGSGTEFTLTISSLQPEDFAVYYCQQCYNWPPWTFGQGTRVEFK
B21: COVA2-43 (antibody, V domains shown)
VH: QVQLVQPGAEVKKPGASVKVSCKASGYTFTSYGISWVRQAPGQGLEWMGWISAYNGDTNYAQKLQGRVTMTTDTSTSTAYMELRSLKSDDTAVYYCARFDYGYPYSSWSVLSIDYWGQGTLVTVSS
VL: DIVMTQSPSSLSASVGDRVTITCRASQGIRNDLGWYQQKPGKAPKRLIYAASSLQSGVPSRFSGSGSGTEFTLTISSLQPEDFATYYCLQHNSYPLTFGGGTKLEIK
B22: C121 (antibody, V domains shown)
VH: not shown
VL: QSALTQPASVSGSPGQSITISCTGTSSDVGSYNLVSWYQQHPGKAPKLMIYEGSKRPSGVSNRFSGSKSGNTASLTISGLQAEDEADYYCCSYAGSSTLVFGGGTKLTVL
B23: CV07-270 (antibody, V domains shown)
VH: QVQLVESGGGLVKPGGSLRLSCAASGFTFSDYYMTWIRQAPGKGLEWVSYISSSGSTIYYADSVKGRFTISRDNAKNSLYLQMNSLRAEDTAVYYCARARGSSGWYRIGTRWGNWFDPWGQGTLVTVSS
VL: B9 VL with D52E, T98N, R99V, T103G, K106M, V107L
B24: COVA2-39 (antibody, V domains shown)
VH: QVQLVETGGGLIQPGGSLRLSCAASGFTVSSNYMSWVRQAPGKGLEWVSVIYTGGTTYYADSVKGRFTISRDNSKNTLYLQMNSLRAEDTAVYYCARAHVDTAMVESGAFDIWGQGTRVTVSS
VL: B22 VL with G53V, S54T, L99W

Target: SARS-CoV-2 hexaproline stabilized pre-fusion spike glycoprotein (S6P) (SARS-CoV-2, ancestral (Wuhan-Hu-1 …, UniProt P0DTC2, stabilised))

Binder	binding result
B1	binds
B2	binds
B3	binds
B4	binds
B5	binds
B6	binds
B7	binds
B8	binds
B9	binds
B10	binds
B11	binds
B12	binds
B13	binds
B14	binds
B15	binds
B16	binds
B17	binds
B18	binds
B19	binds
B20	binds
B21	binds
B22	binds
B23	binds
B24	binds

Source: article PMC10318062 (Nature Communications, 2023)
